Experimental data as given in the nanobody polyreactivity screen of Harvey et al. (2022).

Test: yeast display, Sf9 membrane polyspecificity reagent, FACS + sequencing; frameworks hold sequencing errors
Method in brief: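 Synthetic nanobody libraries on Saccharomyces cerevisiae BJ5465 were galactose-induced for 36–48 hours, stained 1 hour at 4 °C with 10% biotinylated, detergent-solubilized Sf9 membrane reagent and enriched on streptavidin microbeads. FACS then separated cells into low and high (top ~1%) gates by anti-HA (expression) and streptavidin (reagent binding) fluorescence. Genes were colony-PCR amplified, MiSeq 2 × 250 sequenced and CDR-length filtered. A clone's polyreactivity label is that of its gate of origin.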

Sequence	polyreactivity (PSR sort gate)
QVQLVESGGGLVQAGGSLRLSCAASGFIFVGYAMGWYRQAPGKERELVAAITDGGRTKYADSVKGRFTISRDNAKNTVYLQMNSLKPEDTAVYYCAADDLHTYYTLDYWGQGTQVTVSS	high polyreactivity
QVQLVESGGGLVQAGGSLRLSCAASGFIFVHNAMGWYRPAPGKERELVAAIRSRGGSTYYADSVKGRFTISRDNAKNTVYLQMNSLKPEDTAVDDCAADGAVVSSSRKFGYWGQGTQVTVSS	low polyreactivity
QVQLVESGGGLVQAGGSLRLSCAASGFIFVHNAMGWYRQAPGKERELVAAITSRGRTYYADSVKGRFTISRDNAKNTVYLQMNSLKPEDTAVYYCNAYWRGEYRYDSWGQGTQVTVSS	high polyreactivity
QVQLVESGGGLVQAGGSLRLSCAASGFIFVKNAMGWYRQAPGKERELVAVISTRGGRTYYADSVKGRFTISRDNAKNTVYLQMNSLKPEDTAVYYCAALYWYSRSSWDYDYWGQGTQVTVSS	high polyreactivity
QVQLVESGGGLVQAGGSLRLSCAASGFIFVKYAMGWYRQAPGKERELVAAITNGGSTYYADSVKGRFTISRDNAKNTVYLQMNSLKPEDTAVYYCAAQYHDWWRRLLYRSFLPFDYWGQGTQVTVSS	low polyreactivity
QVQLVESGGGLVQAGGSLRLSCAASGFIFVLNVMGWYRQAPGKEMELVAAITWSGTSTYYADSVKGRFTISRDNAKNTVYLQMNSLKPEDTAVYYCNADWWSDGYDYWGQGSQVTVSS	low polyreactivity
QVQLVESGGGLVQAGGSLRLSCAASGFIFVLYAKGWYRQAPGQERELVAAISRTGGSTYYADSVKGRFTISRDNAKNTVYLQMNSLKPEDTAVYYCAVSRSKTYDYWGQGTQVTVSS	high polyreactivity
QVQLVESGGGLVQAGGSLRLSCAASGFIFVNYMGWYRQAPGKERELVAAISRGGSTNYADSVKGRFTISRDTAKNTVYLQMNSLKPEDTAVYYCAAETWYSGYTYDSCGQGTQVTVSS	low polyreactivity
QVQLVESGGGLVQAGGSLRLSCAASGFIFVPNAMGWYRQAPGNERELVAAIRSSGGTTYYADSVKGRFTISRDNAKNTVYLQMNSLKPEDTAVYYCAAKYTSRLNSGYSNYYWGQGTQVTVSW	high polyreactivity
QVQLVESGGGLVQAGGSLRLSCAASGFIFVPYAMGWYRQAPGKERELVAAISSSGGSTNYTDSVKGRFTISRDNAKNTVYLQMISLKPEDTAVYYCAAATWYVNPTHFNRYSEFYYWGQGTQVTVSS	low polyreactivity
QVQLVESGGGLVQAGGSLRLSCAASGFIFVPYAMGWYRQAPGQERELVAAISSSGGSTNYTDSVKGRFTISRDNAKNSVYLQMNRLKPEDTAVYYCAAATWYVNPTHFNRYSEFYYWGQGTQVTVSS	low polyreactivity
QVQLVESGGGLVQAGGSLRLSCAASGFIFVQYAMGWYRQAPGKERELVAAITKSGGRTYYADSVKGRFTISRDNAKNTVYLQMNSLKPEDTAVYYCAALGNGNFPTVDYWGQGTQVTVSS	high polyreactivity
QVQLVESGGGLVQAGGSLRLSCAASGFIFVRYAMGWYRQAPGKERELVAAISSGGSTKYADSVKGRFTISRDNAKNTVYLQMNSLKPEDTAVYYCAADATPGRGVDYWGQGTQVTVSS	high polyreactivity
QVQLVESGGGLVQAGGSLRLSCAASGFIFVRYAMGWYRQAPGKERELVAAISTSGSSTYYADSVKGRFTISRDNAKNTVFLQMNSLKPEDTAVYYCAAKDRGQSYGYWGQGTQVTVSS	high polyreactivity
QVQLVESGGGLVQAGGSLRLSCAASGFIFVSNAMGWYRQAPGKERELVATITNGDRTYYADSVKGRFTISRDNAKNTVYLQMNSLKPEDTGVYYCNADDQVGSIWKWYGKYEYRGQGTQVTVSS	low polyreactivity
QVQLVESGGGLVQAGGSLRLSCAASGFIFVVYAMGWYRQAPGKERELVATISSGGGTYYADSVKGRFTISRDNAKNSVYFQMNSLKPEDTAVYYCAARRSRLYHFGGNNYWGQGTQVTVSS	high polyreactivity

Sequence	polyreactivity (PSR sort gate)
QVQLVESGGGLVQAGGSLRLSCAASGFIFVYNAMGWYRQATGKERELVAAIDYGGGSTTYADSVKVRFTISRDNAKNTVYLQMNSLKPEDTAVYYCAAYYRYLDDIYEYEYWGQGTQVTVSS	low polyreactivity
QVQLVESGGGLVQAGGSLRLSCAASGFIFVYYAMVWYRQAPGKERELVAAITLRGGSTNYADSVKGRFTISRDNAKNTVYLQMNSRKPEDTAVYYCAAYSVWGGSYLALDYWGQGTQVTVSS	low polyreactivity
QVQLVESGGGLVQAGGSLRLSCAASGFIFVYYTMGWYRQAPGNERELVAAISVSGGRTYYADSVKGRFTISRDNAKNTVYLQMNSLKPEDTAVYYCNARNGYGIGYWGQGTQVTVSS	high polyreactivity
QVQLVESGGGLVQAGGSLRLSCAASGFIFVYYVMGWYRTAPGKERELVAAITQSGGSTYYADSVKGRFTISRDNAKNTVYLQMNSLKPEDTAVYYCAAYRRTTGGGYDYWGQGTQVTVSS	high polyreactivity
QVQLVESGGGLVQAGGSLRLSCAASGFIFWAYDMGWYRQAPGKERELVAGIDWSGGSTYYADSVKGRFTISRDNAKNTVYLQMNSLKPEDTAVYYCAADRLLYGGGREYWGQGTQVTVSS	high polyreactivity
QVQLVESGGGLVQAGGSLRLSCAASGFIFWDYALGWYRQAPGKEREFVANISRSVGSTYYADSVKGRFTISRDNAKNTVYLQMYTLKPEDTAVYYCAAVTWGEGFDYWGQGTQVTVSS	low polyreactivity
QVQLVESGGGLVQAGGSLRLSCAASGFIFWGNAMGWYRQAPGKERELVAAISSSSGSTYYADSVKGRFTISRDNAKNTVYLQMNSLKPVDSAVYDCAVDTPRSYRAQGAYNYWGQGTQVTVSS	low polyreactivity
QVQLVESGGGLVQAGGSLRLSCAASGFIFWKYAMGWYRPAPGKERELVAAISRSGGRTYYADSVKGRFTISRDNAKNTVYLQMNSLKPEDTAVYYCAKDSATYPYGTVGEYNYWGQGTQVTVSS	high polyreactivity
QVQLVESGGGLVQAGGSLRLSCAASGFIFWLYAMGWSRQAPGKERELVASINWSGGDTYYADSVKGRFTISRDKAKNTVYLQMNSLKPEDTAVYYCAARYWSIYDYWGQGTQVTVSS	low polyreactivity
QVQLVESGGGLVQAGGSLRLSCAASGFIFWLYAMGWYRQAPGKERELVAAISRSGGRTYYADSVKGRFTISRDNAKITVYLQMNSLKPEDTAVYYFAKVDNYKSYPYDYWGQGTQVTVSS	high polyreactivity
QVQLVESGGGLVQAGGSLRLSCAASGFIFWSNAMGWYRQAPGKERELVAAISWSGGSTYYADSVKGRFTISRDNAKKTVYLQMNSLKPEDTAVYYCNTLNVQRDEHDYWGQGTQVTVSS	high polyreactivity
QVQLVESGGGLVQAGGSLRLSCAASGFIFWSNAMGWYRQAPGKERELVAAISWSGGSTYYADSVKGRFTISRDNAKNTVYLQMNSLKPEDTAVYYCNTLNVQRDEHDYWGQGTQVTVSS	high polyreactivity
QVQLVESGGGLVQAGGSLRLSCAASGFIFWSNARGWYRQAPGQDRELVAAINSSGGRTDYADSVKGRFTNSRDNAKNTDYLHMNSLKPEDTAVYYCAARLHSPPYRYDYWGQGTQVTVSS	high polyreactivity
QVQLVESGGGLVQAGGSLRLSCAASGFIFWSYAMGWYRQAPGKERELVAAINTSTGRTYYADSVKGRFTISRDNAKNTVYLQMNSLKPEDTAVYYCAADLPWGPLFDYWGQGTQVTVSS	low polyreactivity
QVQLVESGGGLVQAGGSLRLSCAASGFIFWTYAMGWYRQAPGKERELVAAISSGGTITKYADSVKGRFTISRDNATNTVYLQMNSLKPEDTAVYYCNARENAVSLRDYWGQGTQVTVSS	high polyreactivity
QVQLVESGGGLVQAGGSLRLSCAASGFIFWTYAMGWYRQAPGKERELVARISWSGGSTYYADSVKGRFTISRDNAKNTVYLQMNSLKPEDTAVYYCARLATLYESIEYDYWGHGTQVTVSS	low polyreactivity
